Data published in publication PMC12952242 (Molecular cell, 2025).

B1: ZNF207 full-length, recombinant (natural protein)
chain: not shown
B2: ZNF207 1–122 (ZnF+Hel), recombinant (domain or fragment)
chain: not shown

Columns and labels:
[1] = biological target: U1 snRNP (lacking the Sm ring), reconstituted (human, UniProt P08621-1 1-216; P09012 1-282; P09234 1-159); experiment: pull-down
[2] = biological target: U1–70K (SNRNP70) 1–216, recombinant (human, UniProt P08621-1 1-216); experiment: pull-down
Chain of U1–70K (SNRNP70) 1–216, recombinant (P08621 1-216): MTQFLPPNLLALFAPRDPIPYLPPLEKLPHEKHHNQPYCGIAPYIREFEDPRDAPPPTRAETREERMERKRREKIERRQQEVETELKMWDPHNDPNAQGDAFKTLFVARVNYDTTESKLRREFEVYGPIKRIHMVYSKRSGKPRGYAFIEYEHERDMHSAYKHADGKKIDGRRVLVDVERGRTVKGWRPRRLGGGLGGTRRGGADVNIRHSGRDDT

Chain of U1 snRNP (lacking the Sm ring), reconstituted (P08621 1-216, chain 1 of 3): as the sequence (P08621 1-216) above
Chain of U1 snRNP (lacking the Sm ring), reconstituted (P09012 whole entry, chain 2 of 3): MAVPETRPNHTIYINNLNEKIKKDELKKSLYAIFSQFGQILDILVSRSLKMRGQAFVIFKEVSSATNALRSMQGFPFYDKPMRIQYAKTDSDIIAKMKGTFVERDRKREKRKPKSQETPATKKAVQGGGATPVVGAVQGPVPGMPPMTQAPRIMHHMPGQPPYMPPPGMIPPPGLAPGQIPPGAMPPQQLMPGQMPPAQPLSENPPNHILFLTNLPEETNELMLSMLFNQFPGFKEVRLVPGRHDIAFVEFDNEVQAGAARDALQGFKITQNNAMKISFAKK
Chain of U1 snRNP (lacking the Sm ring), reconstituted (P09234 whole entry, chain 3 of 3): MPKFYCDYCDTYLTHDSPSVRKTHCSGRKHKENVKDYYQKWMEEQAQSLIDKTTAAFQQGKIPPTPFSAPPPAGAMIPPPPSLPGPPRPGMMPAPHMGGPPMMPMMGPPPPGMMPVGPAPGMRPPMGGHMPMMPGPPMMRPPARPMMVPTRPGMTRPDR

Binder | binding result [1] | binding result [2]
B1 | binds | 
B2 | binds | binds
